# Patent US20210388079A1 (published 2021)
# T1: Serine protease inhibitor Kazal-type 2 (SPINK2); peptide SPINK2-001 peptide on HLA-A*02:01 (human)
# T1 peptide: ALSVLRLAL
# Legend:
# [1] = target: T1, Serine protease inhibitor Kazal-type 2 …; assay: IFNγ release; T2 cells loaded with 10 µM to 10 pM peptide (FIG. 30); full-length, on cells
# [2] = target: T1, Serine protease inhibitor Kazal-type 2 …; assay: IFNγ release; T2 cells loaded with 10 µM to 10 pM peptide (FIG. 28); full-length, on cells
# [3] = target: T1, Serine protease inhibitor Kazal-type 2 …; assay: IFNγ release; T2 cells loaded with 10 µM to 10 pM peptide (FIG. 23); full-length, on cells
# [4] = target: T1, Serine protease inhibitor Kazal-type 2 …; assay: IFNγ release; T2 cells loaded with 10 µM to 10 pM peptide (FIG. 27); full-length, on cells
binder,measurement,setting,value
"R59P2A7 (TCR, V domains shown) Valpha: QKEVEQNSGPLSVPEGAIASLNCTYSDRGSQSFFWYRQYSGKSPELIMSIYSNGDKEDGRFTAQLNKASQYVSLLIRDSQPSDSATYLCAVQPHDMRFGAGTRLTVKP Vbeta: SQTIHQWPATLVQPVGSPLSLECTVEGTSNPNLYWYRQAAGRGLQLLFYSVGIGQISSEVPQNLSASRPQDRQFILSSKKLLLSDSGFYLCAWSGLVAEQFFGPGTRLTVL",EC50 of peptide,[1],0.86 nM
"R49P2B7 (TCR, V domains shown) Valpha: AQSVTQLGSHVSVSEGALVLLRCNYSSSVPPYLFWYVQYPNQGLQLLLKYTTGATLVKGINGFEAEFKKSETSFHLTKPSAHMSDAAEYFCAVRIFGNEKLTFGTGTRLTIIP Vbeta: DVKVTQSSRYLVKRTGEKVFLECVQDMDHENMFWYRQDPGLGLRLIYFSYDVKMKEKGDIPEGYSVSREKKERFSLILESASTNQTSMYLCASSLMGELTGELFFGEGSRLTVL",EC50 of peptide,[2],> 83.2 nM
"R40P1C2 (TCR, V domains shown) Valpha: AQTVTQSQPEMSVQEAETVTLSCTYDTSESDYYLFWYKQPPSRQMILVIRQEAYKQQNATENRFSVNFQKAAKSFSLKISDSQLGDAAMYFCAYLNYQLIWGAGTKLIIKP Vbeta: EPEVTQTPSHQVTQMGQEVILRCVPISNHLYFYWYRQILGQKVEFLVSFYNNEISEKSEIFDDQFSVERPDGSNFTLKIRSTKLEDSAMYFCASSEMTAVGQYFGPGTRLTVT",EC50 of peptide,[3],1.94 nM
"R44P3E7 (TCR, V domains shown) Valpha: GEDVEQSLFLSVREGDSSVINCTYTDSSSTYLYWYKQEPGAGLQLLTYIFSNMDMKQDQRLTVLLNKKDKHLSLRIADTQTGDSAIYFCAEINNNARLMFGDGTQLVVKP Vbeta: AAGVIQSPRHLIKEKRETATLKCYPIPRHDTVYWYQQGPGQDPQFLISFYEKMQSDKGSIPDRFSAQQFSDYHSELNMSSLELGDSALYFCASSPPDQNTQYFGPGTRLTVL",EC50 of peptide,[4],0.86 nM
